Holding throughout (assay): cell_activity
The test system of data set [1] is ZFN 20186 (CTLA-4) (synthetic). The conditions noted are these: pair 20186/20185, Cel-I, K562.
The test system of data set [2] is ZFN 20185 (CTLA-4) (synthetic). The settings on record: pair 20186/20185, Cel-I, K562.
Data set [3] relates to ZFN 20190 (CTLA-4) (synthetic). The conditions noted are these: pair 20190/20189, Cel-I, K562.
The subject of another data set is TALEN 101620 (synthetic). The settings on record: pair 101623/101620, K562; 10.6 with 101622, 0 with 101621.
The next data set relates to TALEN 101624 (synthetic). The conditions noted are these: pair 101625/101624, K562.
The subject of data set [4] is ZFN 25029 (PD1) (synthetic). The conditions noted are these: pair 12942/25029, Cel-I, K562; also active in PBMC (FIG. 2).
Data set [5] concerns ZFN 12942 (PD1) (synthetic). The conditions noted are these: pair 12942/25029, Cel-I, K562; also active in PBMC (FIG. 2).
Another data set relates to TALEN 101640 (synthetic). The conditions noted are these: pair 101641/101640, K562.
The next data set relates to TALEN 101632 (synthetic). The conditions noted are these: pair 101633/101632, K562.
The next data set relates to TALEN 101633 (synthetic). The settings on record: pair 101633/101632, K562.
Another data set has as its system TALEN 101641 (synthetic). The conditions noted are these: pair 101641/101640, K562; RVD 16 printed ND.
The test system of the next data set is TALEN 101626 (synthetic). The conditions noted are these: pair 101627/101626, K562.
A further data set concerns TALEN 101621 (synthetic). The conditions noted are these: pair 101621/101618, K562; 18.1 with 101619, 0 with 101620.
In a further data set the test system is TALEN 101627 (synthetic). The settings on record: pair 101627/101626, K562.
The subject of another data set is TALEN 101618 (synthetic). The settings on record: pair 101621/101618, K562; 14.7 with 101622, 6.8 with 101623.
Data set [6] has as its system ZFN 20189 (CTLA-4) (synthetic). The settings on record: pair 20190/20189, Cel-I, K562.

Consider “ACAGTGCTTCGGCAGGCTGACAGCCAGG (double strand) [CTLA-4 site 20186]”, for which the activity in data set [1] was determined as 3.3 % indels. Regarding “ACCCGGACCTCAGTGGCTTTGCCTGGAG (double strand) [CTLA-4 site 20185]”, the activity in data set [2] came out at 3.3 % indels. In the case of “ACTACCTGGGCATAGGCAACGGAACCCA (double strand) [CTLA-4 site 20190]”, the activity in data set [3] amounted to 1.8 % indels.

As to “ATGCAGATCCCACAGGCGC (double strand) [PD1 site 101620/101624]”, the activity with TALEN 101620 (synthetic) was determined as 11.6 % NHEJ; in the data set with TALEN 101624 (synthetic) it was 10.1 % NHEJ.

In data set [4], “CAGTCGTCTGGGCGGTGCT (double strand) [PD1 site 25029]” yielded an activity of 14.7 % NHEJ. In data set [5], “CCAGGGCGCCTGTGGGATCTGCATGCCT (double strand) [PD1 site 12942]” displayed an activity of 14.7 % NHEJ. In the case of “CTACCTCTGTGGGGCCATCTC (double strand) [PD1 site 101632/101640]”, the activity was 23 % NHEJ in the data set on TALEN 101640 (synthetic) and 14.7 % NHEJ in the data set on TALEN 101632 (synthetic).

As for “CTCTCTTTGATCTGCGCCTTG (double strand) [PD1 site 101633/101641]”, the activity amounted to 14.7 % NHEJ in the data set with TALEN 101633 (synthetic) and 23 % NHEJ with TALEN 101641 (synthetic). On to “CTTCTCCCCAGCCCTGCTCGT (double strand) [PD1 site 101626]”, for which the activity in the data set on TALEN 101626 (synthetic) stood at 12.5 % NHEJ.

In the data set on TALEN 101621 (synthetic), “GTAGCACCGCCCAGACGACTG (double strand) [PD1 site 101621]” gave an activity of 23.5 % NHEJ. The sequence “GTGAAGGTGGCGTTGTCCCCT (double strand) [PD1 site 101627]” gave an activity with TALEN 101627 (synthetic) of 12.5 % NHEJ. In the data set on TALEN 101618 (synthetic), “GTGCTCCAGGCATGCAGATCC (double strand) [PD1 site 101618]” registered an activity of 23.5 % NHEJ. With “TGGCGGTGGGTACATGAGCTCCACCTTG (double strand) [CTLA-4 site 20189]”, in data set [6], the activity was found to be 1.8 % indels.

The values are drawn from patent US20170183420.
